# Laboratory results as given in the DeepSol protein solubility set.
# Test: soluble on expression in E. coli; label from the status in PepcDB or PDB records
row,Sequence,soluble on expression in E. coli
1,MLILRKDSKFDRKSIEELKELAEVLYNPVKTIVQIRKADPKYQIGSGLVERIAENIKEENIEIVIVGNILTPSQKYNLAKKFKVEVIDKIELVLRIFYKHARTKEAQLQVRLAELQYELPRAREKVRLAKMGEQPGFGGYGDYEVEKYYQKVKREIATIKRKLEKLREHRRVARKGRAKFDTVGLIGYTNAGKTSLLNALTGENKESKNQVFTTLTTTTRAIKGIKRKILVTDTVGFIDDLPPFMIEAFLSTIEESADSDLILIVVDASDDIEEIKRKLKVNHEILSKINCKAPIITVFNKVDKITKEKKRKILEELDRYIVNPIFVSAKYDINMDLLKEMIIEHLNLSIGTIETDNPRLISYLYENTEIIEDILEDNKHIITFRAKERDVNRILKLHKSAVLEHHHHHH,not soluble
2,MLINARISVRSYPKYQRFSFFYALLFKRIDLILAQSKEDKKRLLNLGAKKVVDFLNIKRFSKPVITSFYPKNPSALNIVLASTHEGEEELGLKAFLELKKTFKNARLIVVPRHPERFKSVQDLLQNTLKTTPFSWECFSSKGFVECDILLVDSLGELNNFYQIADIVILGGSFVKMGGHNPLEPAFFNARLITGEYIFNQVALFELVKPYKIVPKEDLLDALLDYKNLGMARFLENGHDLNELLAFIKHLEHHHHHH,soluble
3,MLIYHNCTTDRTMRKMRHEWGTFGIRIADAFSTMNIDVFDKGEKYNGNEKVELTTTVKNYKPKNNTRKWPAVEAKYLGVVYDNHNKLPKNCEGQKVEVQMMKIDKEQYGWVITDILNE,not soluble
4,MLKAMEHPAYSQLRPVTPSAGVVLCPNPGYSSLEGTNSWVVRAEGDRCSIVIDPGPADEGHLNVLHGKAETVGLVLLTHRHHDHADGAERFRQLTGAAIRAQQAPYCHGGDVLRDGEIIAIDGVTPQLEVVFTPGHTSDSVCFFVWSGVPHESNLEGIITGDTIAGRHTTMISETDGDLGQYLNTLALLEKRGKGIALLPGHGPDGDDVASFAHWYIERRMQRLEQIKEAIAQRGADVPIKELIDAVYDDVDPVLRGAAEQSTRVALRYLAQQQ,not soluble
5,MLKGIDLTYPQLTYLPETGILYDNTYNEKTVPIISGGGSGHEPAHVGYVGSGMLAAAVTGPLFIPPKSKNILKAIRQVNSGKGVFVIIKNFEADLKEFNEAIKEARTEGIDVRYIVSHDDISVNAYNFHKRHRGVAGTILLHKILGAFAKEGGSIDEIEQLALSLSPEIYTLGVALAPVHFPHQKTSFVLAEDEVSFGIGIHGEPGYRVEKFEGSERIAIELVNKLKAEINWQKKANKNYILLVNGLGSTTLMELYSFQYDVMRLLELEGLSVKFCKVGNLMTSCDMSGISLTLCSVKDPKWLDYLNVPTGAFAWLEHHHHHH,not soluble
6,MLKGQRTWVFANKPAIIATAAVGGPFEANGRLAEDFDLLHEDLWLGEESYEKAHRVLMEEAAFQAMEKAGLEKEKVQFLIAGDLINQMTPTSFAARTLGMPYLGVFGACSTSMEGLALSAFITNYGGADYILTGASSHNAAVEKQFRYPTEYGGQKPPTAQWTVTGAGVAIVSPKGDGPRVTAATIGRVVDMGLADPFNMGGAMAPAAVDTIEAHLRDMQIDASYYDLIVTGDLGRIGRQVSLDLLRQHGIDIDEECYQDCGLLIYRDGQPVLSGASGAACSAVVVYGHLIKRMRRGELKRILAVATGALLSPLSFQQNETIPCIAHAVAIEYGGEA,not soluble
7,MLKIADKTFQSRLFTGTGKFSNRHVMAEALAASGSELVTMALKRIDLAQRDDDILAPLLSMQMNLLPNTSGAKNAADAVYAAELAREALATNWLKLEIHPDPKYLMPDPIETLLAAEQLVKQGFIVLPYCHADPVLCKRLEEVGCAAVMPLGSPIGSNQGLASKTFLEIIIDQAKVPVIVDAGIGSPSDAAQAMELGADAVLVNTAIAAAHDPIAMAKAFKLAVEAGRMAYESGLPSRVKMATASSPLTGFLDFVS,not soluble
8,MLKIGVITMALLSFLNAGWLGNLFDNTPTPYYTMPIDLSKTGNVAETDIRIDKEYRTGIALNYDFRRQKNKMTRNEYNNIKVFFGNSYTSGTAIPVKLKIEKIMDKNETTILNDIIIVDNNGGHELHSSLIKEIALSQGKYRIKVETTEDFSELSDLSVLVEIYYIRAPK,not soluble
9,MLKINVKYQLKNTLIRINIDDTEPKIYAVRGPSGIGKTTVLNMIAGLRKADEAIIEVNGQLLTDTAKNVNVKIQQRRIGYLFQDYQLFPNMTVYKNITFMAEPSEHIDQLIQTLNIDHLMKQYPMTLSGGEAQRVALARALSTKPDLILLDEPFSSLDDTTKDESITLVKRIFNEWQIPIIFVTHSNYEAEQMAHEIITIG,not soluble
10,MLKSGRLNFLKLNINSRLLYSTNPQLTKKVIGIDLGTTNSAVAYIRDSNDKKSATIIENDEGQRTTPSIVAFDVKSSPQNKDQMKTLVGMAAKRQNAINSENTFFATKRLIGRAFNDKEVQRDMAVMPYKIVKCESNGQAYLSTSNGLIQSPSQIASILLKYLKQTSEEYLGEKVNLAVITVPAYFNDSQRQATKDAGKLAGLNVLRVINEPTAAALSFGIDDKRNNGLIAVYDLGGGTFDISILDIEDGVFEVRATNGDTHLGGEDFDNVIVNYIIDTFIHENPEITREEITKNRETMQRLKDVSERAKIDLSHVKKTFIELPFVYKSKHLRVPMTEEELDNMTLSLINRTIPPVKQALKDADIEPEDIDEVILVGGMTRMPKIRSVVKDLFGKSPNSSVNPDETVALGAAIQGGILSGEIKNVLLLDVTPLTLGIETFGGAFSPLIPRNTTVPVKKTEIFSTGVDGQAGVDIKVFQGERGLVRNNKLIGDLKLTGITPLPKGIPQIYVTFDIDADGIINVSAAEKSSGKQQSITVIPNSGLSEEEIAKLIEEANANRAQDNLIRQRLELISKADIMISDTENLFKRYEKLISSEKEYSNIVEDIKALRQAIKNFKANENDMSIDVNGIKKATDALQGRALKLFQSATKNQQNQGK,not soluble
11,MLKVSDLLTLEELPGITLVAGHKNQDQPILKVNILENPDILDWLTAGELLLTTGYIFKDDRKLQKNFLKELAKHHCAALGFKTQRYFEEVPPDLIKLADEMNVPILAIPYNYTFSQIADVLKSRVTLEQFDMNAQETALHNKIYQILETGSSSFHLLQDLAETIQNPVLLLNDHFEGVNFFDLPKNPIRISSILEDRQETSEFQKQLLEQSHPLLRFYQEPIHLQLKLQNQVVPIEIYPIKKKNVILYYLLVWNTLAPLRPVDVAHFKITAHYLLLQLQLEYSRKFEEYQQRNELFFKLFAHEKRDQAVFQQFQQYYRLAIDKPYAILLISLTLNERQRQERMSILGNQLNQVILGDKQKIVCIEIDSSFVLLVENPPEKEGDYLKMMQRLAQSSINQLMKVQEDVELFLTIGPKIQGLTQIHESYQQAIDVLAFQRQFVAEKPEMRIASYSNFHFRQTLQRYFLEEGQATLRKKYLQPLQKSDQQQHTDFVHTLNVYFQSKRNLSQTAKKLFIHRNTLLQRLEKIEQLVLLDFDKEVDLLALEVALFVGT,not soluble
12,MLLFSAFLIFGFSIGFSEEASCRHPHERFIGTRCYAFVSKKHTYNTAKEYCDSHGYSLATVDNAITSNFLASSAATEFGSNNGQFWIGLSRKKDYELFNWDDGTIVSYTNFEAGFPNKQDFVAENVRNGRWQTLAEHKELEFVCSYDPTATTSAAPTTIPPTTTTTRAPTTTTVRKTTQTTATTMTTPKPTTTVSTTTTTTVPPTTTPKACPQGFVLFEPTQKCYIVLVYGNDSDYPDVPDDAPFLTRENQRCAKYGATVATIHSSDLNDLFRSLIYERFNDTRYATIGLRNIDMKTISGKWQWFDGTSPDYLNFGNMFPKTGDYIAQTSSQGFWVSYTHTAPNEGVVCSKNRKSERGFTGLVDIDQAAIKKLELQTYLK,not soluble
13,MLLQNILPFAHCLLRKALPEGGNALDGTAGNGHDTLFLAQTAGIRGKVWAFDIQPQALNNTRCRLQEAGYSNVRLILDGHENLKQYIPKPLDAAIFNFGWLPGGDKSLTTRTETSIAALSATLSLLKENGMLIAVLYPGHENGKQEAEAIEQWAKNLPQEQFAVLRYGFTNRKNSPPYLLVFEKLRQKLEHHHHHH,soluble
14,MLLVSDIQTIQPSLNSVNEGGQKIKNEAEPEFASRLETELKELNTQWDHMCQQLEHHHHHH,not soluble
15,MLMPEMDRRRMMMMAGFGALAAALPAPTAWADPSRPAAPAGPTPAPAAPAAATGGLLFHDEFDGPAGSVPDPSKWQVSNHRTPIKNPVGFDRPQFFGQYRDSRQNVFLDGNSNLVLRATREGNRYFGGLVHGLWRGGIGTTWEARIKFNCLAPGMWPAWWLSNDDPGRSGEIDLIEWYGNGTWPSGTTVHANPDGTAFETCPIGVDGGWHNWRVTWNPSGMYFWLDYADGIEPYFSVPATGIEDLNEPIREWPFNDPGYKVFPVLNLAVGGSGGGDPATGSYPQEMLVDWVRVF,not soluble
16,MLMRQVLEEACLKSGFEVNSHRLQTQSRKPIDSSLPFRLTGLANNATLEMTQKEAVSENTIIELAIQTASGARHQKKVGVNQMLLDALKSFTSEFKEDLATTIDGSVPCIVYMNKRYTGAELAVNSLSSLGVASGKCLIRHMRVKLSDQELATMQAKLQEENERKKALDVNFVKLKAENAERDRLERLRQEAFDKDKESREKREQEQLRALIPEPASNIQDSTVMDTTESQQRDVLQEVPEQNPNSWSFDGPAFSRQVPQNTMRMEELNRLLERVDHSLATPAVESRMDAMVNALADGGRISLAEVRTRADVAMEQEQEEDPVEVFANPCDRQAVIYKKRARVQTTDEPMETEEFFEVGIEDVRNMQKDLRKAVRDQTQASFISKEYLAKKNRQLKLEAYKHTVIRISIGEHILQVYFNTAEQSSNLDLFLNNVLTRSGWKLMFTNLKVVTNELKNFVDIELAPKSTLIASFGGQTVNAADVVHNVIEVTPEKADAMSADWLSLNKTFMPFNSTVNDDRKQKRPQFQSSSSSSHSGPPAKSAMPKWLQTGKK,not soluble
17,MLMSLAQCPGFLFAHREECTVEIKKIINPRYTESGAVDCDVFFDDRDQAVPYTATADDVAPTGQQIWQELQSGKWGEIAPFTVTPEMLEAAREARRQEIEAWRTEQEAKPFTFEWNGRTWNADASSVARLSPVVMLAKSVAAQTHMVWSDADNQQVKLSMPELEELAAAMVQAQVDRNDEIYRRQREMKEELSSLDDLASIRAFDVK,not soluble
18,MLNLSRLSRKLLGWLGRPLSAAHSGEVRQRGPQTHVIILDGTMSTLEPGRETHAGQTYRLMCEMGARVSVFYEAGVQWTSWRTTPDVMMGRGLNRQIRRAYGYLASRYRPGDRIFLIGYSRGAYAVRSLAGVIDMVGLLKAEHATVRNIRQAYRHYECDVQGPHAQVFRDLYCHRDVMIEMVGVWDTVKALGLRLPVLWRLSEQRHAFHSHHLGRSVRHGYHALALNETRNVFEPILWDCKPEFRGHVEQVWFRGTHGDVGGQLGGDERARPLANLSLVWMLERAEHLGLPLPKDWHARFPTDPNAPSVGTWSGWGKIFLLRSARTVGRDPSERLHESVIGDTLPEGLPAPYLRSRSFGLEHHHHHH,soluble
19,MLNNGTFPLVFQFIHRRRKLLYYTKYHIFQQQLADGALEVEYCEASLYSMKEIKEINRELKRDYKRFQNRILELERNNEEYLVDDIVEFKKKKSHRSYLLMQYIETQISYKKKMGKDGIAAAYHSTYISLKKYIGMKSARKSDIRMEEINFSFVVGYEDYLNAQGLARNTINYYLRNFRTIYNSSIRDGFKPKSENPFTYIQTKPCKTIKRAINKDDMKKLSSLILPVHSGMDIARDMYLFSFYAQGMAFVDIVFLKKKNIRDGILSYRRHKSQQLIHIVITPQMQGLIDKYANDSEYVFPIIDTSLSTSIYDQYRLALGRVNRYLKKITFRLNINVRLTTYTARHTWATLARESGAPISIISAGLGHTSEEMTRVYLKEFDQETLARVNRIVTNLL,not soluble
